Patent US20180371460, “Depletion of Abundant Serum Proteins to Facilitate Biomarker Discovery” (UNIVERSITY OF UTAH RESEARCH FOUNDATION, published 2018)

What was measured:
[1] = molecular target: T1, Human serum albumin (HSA), denatured (Homo sapiens, UniProt P02768 P02768:25-609); assay: EMSA; tested in lane 1, not listed among binders; PBS pH 6, 50 mM DTT, 1% SDS; settings: tags: none; denatured with 1% surfactant and reduced with DTT or TCEP; label: 5'-fluorescein
Experimental: (§1) Gel shift assays were then performed to determine which of these nucleic acids would bind to HSA under denaturing and reducing conditions. Specifically, 40 nmol of the fluorescein labeled DNA was incubated with 3 μM denatured HSA in PBS (pH=6) containing 50 mM fresh DTT and 1% SDS at room temperature for 1 hr. The samples were then run on an 8% nondenaturing gel (PBS pH=6, 0.1% SDS) at 100 V for 1 hour at 4° C. The gels were imaged using a Typhoon FLA 9500 gel imager using a 473 nm laser and an LPB filter. FIG. 12 is a representative gel showing the results of the gel shaft assays for the fluorescein labeled forms of the following nucleic acids: 35 (lane 1), 36 (lane 2), 40 (lane 3), H1 (lane 4), H2 (lane 5), H3 (lane 6) and H5 (lane 7).

[2] = molecular target: T1, Human serum albumin (HSA), denatured; assay: EMSA; tested in lane 6, not listed among binders; PBS pH 6, 50 mM DTT, 1% SDS; settings: tags: none; denatured with 1% surfactant and reduced with DTT or TCEP; label: 5'-fluorescein
Experimental: as §1

[3] = molecular target: T1, Human serum albumin (HSA), denatured; assay: EMSA; tested in lane 5, not listed among binders; PBS pH 6, 50 mM DTT, 1% SDS; settings: tags: none; denatured with 1% surfactant and reduced with DTT or TCEP; label: 5'-fluorescein
Experimental: as §1

[4] = molecular target: T1, Human serum albumin (HSA), denatured; assay: pulldown; 1% SDS or Tween 80 with 50 mM DTT, or 1% Tween 80 with 25 mM TCEP, PBS pH 7.4; blank beads control; settings: tags: none; denatured with 1% surfactant and reduced with DTT or TCEP; label: 5'-fluorescein (gel shift) or 5'-thiol-hexaethylene glycol on magnetic beads (pull-down)
Experimental: Pull-down. HSA (2 mg/mL from Gemini) was denatured in 1% surfactant (either Tween 80 or SDS) and 50 mM DTT in PBS (pH=7.4) for 1 hr. The binding buffers consisted of 50 mM freshly prepared DTT. The beads were equilibrated with 2 mL of the binding buffer used during the pull-down prior to protein addition. Protein (40 μg/mL) was then added to the columns and these were placed on a nutating mixer for 1 hr. The samples were then placed on the magnetic separation stand for 4 min, and the supernatant was removed. The beads were then washed twice with 1 mL binding buffer, collecting the supernatant each time. Bound protein was eluted using 300 μL of 4M urea with 0.1% surfactant and repeated to recover all bound protein. For each elution, the beads were incubated at 95° C. for 10 min. The beads were regenerated by rinsing with 1 mL of 1M NaCl followed by 2 mL of PBS. They were then stored in PBS in the refrigerator.
The aliquots were then concentrated using a 10 kDa Amicon spin filter. The samples were run on a NuPAGE™ Novex™ 4-12% Bis-Tris protein gel at 200 V for 40 min and stained with Spyro Ruby. The gels were visualized with a Typhoon FLA 9500 gel imager using a 473 nm laser and an LPG filter. FIG. 13 is a gel showing the results of the pull down (using nucleic acid 36) of HSA denatured with SDS (upper image) or Tween 80 (lower image) and reduced with DTT.
HSA binding with TCEP. […]

[5] = molecular target: T1, Human serum albumin (HSA), denatured; assay: pulldown; 1% surfactant, 50 mM DTT or 25 mM TCEP, PBS pH 7.4, 40 ug/mL HSA; settings: tags: none; denatured with 1% surfactant and reduced with DTT or TCEP; label: 5'-fluorescein (gel shift) or 5'-thiol-hexaethylene glycol on agarose (pull-down)
Experimental: The beads were equilibrated with 3 bed volumes of the binding buffer used during the pull-down prior to protein addition. Protein (40 μg/mL) was then added to the columns and placed on a nutating mixer for 45 min followed by 15 minutes of stationary incubation. The supernatant was then collected via centrifugation. The resin was then washed twice with 700 μL binding buffer, collecting the flow-through each time. Bound protein was then eluted using 300 μL 4 M urea with 0.1% surfactant and repeated to recover all bound protein. For each elution, the column was placed on a nutating mixer for 30 min. The A280 was then measured for each aliquot to determine the percent bound.

[6] = molecular target: T1, Human serum albumin (HSA), denatured; assay: EMSA; tested in lane 4, not listed among binders; PBS pH 6, 50 mM DTT, 1% SDS; settings: tags: none; denatured with 1% surfactant and reduced with DTT or TCEP; label: 5'-fluorescein
Experimental: as §1

[7] = molecular target: T1, Human serum albumin (HSA), denatured; assay: EMSA; tested in lane 7, not listed among binders; PBS pH 6, 50 mM DTT, 1% SDS; settings: tags: none; denatured with 1% surfactant and reduced with DTT or TCEP; label: 5'-fluorescein
Experimental: as §1

T1 sequence (P02768 25-609, one chain of several): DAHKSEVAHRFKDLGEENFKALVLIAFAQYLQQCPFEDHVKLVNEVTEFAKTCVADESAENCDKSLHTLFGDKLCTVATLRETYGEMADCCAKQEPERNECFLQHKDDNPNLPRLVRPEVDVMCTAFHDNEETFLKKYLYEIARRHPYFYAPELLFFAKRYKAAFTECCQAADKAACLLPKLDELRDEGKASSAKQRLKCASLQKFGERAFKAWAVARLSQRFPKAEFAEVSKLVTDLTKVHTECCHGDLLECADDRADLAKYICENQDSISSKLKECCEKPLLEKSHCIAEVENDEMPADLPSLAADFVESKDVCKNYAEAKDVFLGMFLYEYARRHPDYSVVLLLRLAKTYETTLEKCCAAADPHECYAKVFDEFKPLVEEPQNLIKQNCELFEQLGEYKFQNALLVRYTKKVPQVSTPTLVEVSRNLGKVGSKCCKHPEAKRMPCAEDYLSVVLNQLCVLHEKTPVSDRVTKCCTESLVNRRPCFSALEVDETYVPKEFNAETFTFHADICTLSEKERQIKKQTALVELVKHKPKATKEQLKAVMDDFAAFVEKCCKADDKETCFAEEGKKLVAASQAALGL

B1: 35 (ssDNA)
DNA: GCGCATACCAGCTTATTCAATTCGGTACGTGACGCAAAAAAGGTCGGGCGGCTGACATGGCACCTCGTCTAAAGATAGTAAGTGCAATCTCGGC
binding result [1]: no binding

B2: H3 (ssDNA)
DNA: GCGCATACCAGCTTATTCAATTGATCCATACAAGGGTAGGTTGACTTCCGCCCAAGGGGGCGAGGCCGTGAGATAGTAAGTGCAATCTCGGC
binding result [2]: no binding

B3: H2 (ssDNA)
DNA: GCGCATACCAGCTTATTCAATTTCAAAGGCTGACCGGATGGGCTTCGTGACCGGGTACGCCACTGCCTCGTGAGATAGTAAGTGCAATCTCGGC
binding result [3]: no binding

B4: 36 (ssDNA)
DNA: GCGCATACCAGCTTATTCAATTCGGATAGACAACATGGGGAAGAACAGTGTCTAGTCGTGGGTTGCTCTGTAAGATAGTAAGTGCAATCTCGGC
binding result [4]: binds

B5: 40 (ssDNA)
DNA: GCGCATACCAGCTTATTCAATTCGGTAGTGCAGCGGCTTGAAATCAGCCGTGCTTTCGGGACGGAACTACTCAGATAGTAAGTGCAATCTCGGC
binding signal [5]: 10.3 % HSA bound

B6: H1 (ssDNA)
DNA: GCGCATACCAGCTTATTCAATTACGCTCAGGACTAAAAATGGGCGTGACCATGAGCTCAGTATGGGCGTTACAGATAGTAAGTGCAATCTCGGC
binding result [6]: no binding

B7: H6 (ssDNA)
DNA: GCGCATACCAGCTTATTCAATTGCGTACCTAGGATTTACTTTCTCAAGATATTTGGAGTGACAAGTGGCATAAGATAGTAAGTGCAATCTCGGC
binding signal [5]: 10 % HSA bound

B8: H5 (ssDNA)
DNA: GCGCATACCAGCTTATTCAATTAGGAACGCACCCGAGTGTTGCGCGAGCCAGTGGCTGGTTGGCCCGTATAAGATAGTAAGTGCAATCTCGGC
binding result [7]: no binding

B9: 19 (ssDNA)
DNA: GCGCATACCAGCTTATTCAATTAACGTGTAGAGGTGTTCACGCACCACGCCGACTGTGGTTGACCCACAGTTAGATAGTAAGTGCAATCTCGGC
binding signal [5]: 10.3 % HSA bound

B10: P1 (ssDNA)
DNA: GCGCATACCAGCTTATTCAATTGCATAGTCATGCGGGAATAGTTTTCGATGAGGGCTATTGGAGGCCCCAGCAGATAGTAAGTGCAATCTCGGC
binding signal [5]: 12.7 % HSA bound
